Reference: PMC9023267

Tests used:
Mtr4ΔF (fist-less) [1] = biological target: T1, Mtr4ΔF (fist-less) (Saccharomyces cerevisiae, UniProt P47047 1-666+=GGG+814-1073, internal_change); experiment: HDX-MS
T1 sequence: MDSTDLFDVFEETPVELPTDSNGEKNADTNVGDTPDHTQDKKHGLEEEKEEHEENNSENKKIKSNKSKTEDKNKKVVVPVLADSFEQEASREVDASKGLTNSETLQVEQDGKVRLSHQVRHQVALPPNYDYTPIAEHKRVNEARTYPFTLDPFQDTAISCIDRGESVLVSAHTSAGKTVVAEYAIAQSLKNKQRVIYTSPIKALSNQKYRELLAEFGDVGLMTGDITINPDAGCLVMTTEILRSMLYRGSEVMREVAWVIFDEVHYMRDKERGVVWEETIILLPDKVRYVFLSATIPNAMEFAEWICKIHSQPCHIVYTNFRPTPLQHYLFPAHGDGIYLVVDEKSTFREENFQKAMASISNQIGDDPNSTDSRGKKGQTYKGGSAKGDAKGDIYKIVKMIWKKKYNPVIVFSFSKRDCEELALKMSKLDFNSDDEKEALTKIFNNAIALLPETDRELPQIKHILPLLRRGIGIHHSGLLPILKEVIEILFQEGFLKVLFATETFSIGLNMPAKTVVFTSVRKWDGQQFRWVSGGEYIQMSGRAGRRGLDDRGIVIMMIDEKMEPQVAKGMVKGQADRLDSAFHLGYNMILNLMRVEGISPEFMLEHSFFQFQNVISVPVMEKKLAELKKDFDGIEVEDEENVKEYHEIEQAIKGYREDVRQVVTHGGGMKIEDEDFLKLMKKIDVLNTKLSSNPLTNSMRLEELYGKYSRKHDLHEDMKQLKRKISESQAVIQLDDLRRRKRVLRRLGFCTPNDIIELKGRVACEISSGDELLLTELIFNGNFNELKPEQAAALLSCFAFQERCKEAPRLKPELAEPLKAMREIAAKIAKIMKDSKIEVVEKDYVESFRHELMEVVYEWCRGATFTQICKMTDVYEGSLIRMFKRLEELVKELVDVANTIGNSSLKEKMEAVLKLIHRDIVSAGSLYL

Mtr4WT = biological target: T2, Mtr4WT (Saccharomyces cerevisiae, UniProt P47047 1-1073); experiment: EMSA
T2 sequence: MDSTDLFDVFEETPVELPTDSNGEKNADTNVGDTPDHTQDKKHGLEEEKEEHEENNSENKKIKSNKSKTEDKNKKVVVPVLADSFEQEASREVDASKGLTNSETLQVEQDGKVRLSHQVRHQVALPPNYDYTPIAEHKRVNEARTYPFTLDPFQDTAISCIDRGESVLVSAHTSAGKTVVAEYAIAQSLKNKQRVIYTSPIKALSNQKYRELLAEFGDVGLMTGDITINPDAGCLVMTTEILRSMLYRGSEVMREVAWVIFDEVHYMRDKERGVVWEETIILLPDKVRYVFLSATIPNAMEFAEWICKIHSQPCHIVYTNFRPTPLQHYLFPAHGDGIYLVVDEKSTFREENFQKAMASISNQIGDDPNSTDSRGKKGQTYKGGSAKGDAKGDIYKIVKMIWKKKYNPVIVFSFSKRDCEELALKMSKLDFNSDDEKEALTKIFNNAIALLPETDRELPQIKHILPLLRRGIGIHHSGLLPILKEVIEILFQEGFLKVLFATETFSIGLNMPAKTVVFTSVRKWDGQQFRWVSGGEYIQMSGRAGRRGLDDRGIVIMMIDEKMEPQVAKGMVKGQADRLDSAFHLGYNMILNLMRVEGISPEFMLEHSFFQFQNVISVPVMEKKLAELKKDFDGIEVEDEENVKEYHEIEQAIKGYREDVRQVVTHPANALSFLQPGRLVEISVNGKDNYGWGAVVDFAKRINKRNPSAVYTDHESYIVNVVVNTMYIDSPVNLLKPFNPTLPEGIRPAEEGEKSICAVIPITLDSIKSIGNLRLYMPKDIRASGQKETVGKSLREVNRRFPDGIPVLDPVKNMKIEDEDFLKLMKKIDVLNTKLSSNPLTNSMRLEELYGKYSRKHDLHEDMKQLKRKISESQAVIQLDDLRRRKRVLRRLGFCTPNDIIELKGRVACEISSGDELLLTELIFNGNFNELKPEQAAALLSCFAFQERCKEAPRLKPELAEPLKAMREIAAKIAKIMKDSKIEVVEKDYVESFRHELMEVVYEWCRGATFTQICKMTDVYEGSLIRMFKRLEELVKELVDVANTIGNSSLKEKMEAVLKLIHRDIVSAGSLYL

Mtr4ΔF (fist-less) [2] = biological target: T1, Mtr4ΔF (fist-less); experiment: EMSA

B1: tRNAiMet (structured_RNA)
RNA: GGGGUUCACUGCCGUAUAGGCAGAGCGCCGUGGCGCAGUGGAAGCGCGCAGGGCUCAUAACCCUGAUGUCCUCGGAUCGAAACCGAGCGGCGCCAAAAAAAAACGC
modifications: none (hypomodified, in vitro transcript)
B1 was tested, and the binding result (Mtr4ΔF (fist-less) [1]) was “binds” and the Kd (Mtr4WT) was 270 ± 20 nM.

In the case of GCGUCUUUACGGUGCUUAAAACAAAACAAAACAAAACAAAAA (ssRNA) [ssRNA42], the binding result (Mtr4ΔF (fist-less) [1]) is reported as “binds” and the Kd (Mtr4WT) is reported as 420 ± 40 nM.

B2: dsRNA32 (dsRNA)
RNA 1: GCAGGAGCCUAGCUGAAAGAUGUCCUCGGAUCGACGCGUCUUUACGGUGCUUAAAAA
RNA 2: AGCACCGUAAAGACGC
For B2, the binding result (Mtr4ΔF (fist-less) [1]) was “binds” and the Kd (Mtr4WT) was 570 ± 30 nM.

B3: dsRNA16 (dsRNA)
RNA 1: GCGUCUUUACGGUGCUUAAAAA
RNA 2: AGCACCGUAAAGACGC
For B3, the Kd (Mtr4ΔF (fist-less) [2]) was 1420 ± 220 nM and the Kd (Mtr4WT) was 1140 ± 80 nM.
